We go through 1 molecule from patent US20250314655A1 (AUTOLUS, published 2025).

No end group written: not given here.

This assay concerns the target T1, TRBC1 peptide (biotinylated) (human, also: biotinylated (site not given here)).
T1 construct: In the monoclonal screen: biotinylated, 0.5 ug/ml on neutravidin-coated plates; In the polyclonal phage ELISA also presented as BSA or OA conjugate of the C-terminal-cysteine form; also called Bio-TRBC1; biotinylated TRBC1
T1 peptide: VLEDLNKVFPPEVAV
Nature of the assay: TRF assay, scFv on biotin-peptide/neutravidin plate. The procedure:
The scFv populations from round-2 and round-3 selection outputs were sub-cloned into the pSANG10-3F expression vector and transformed into E. coli BL21 (DE3) cells. 1128 individual transformants (564 clones/TRBC peptide) were picked into 12×96 well culture plates (94 clones/plate) and antibody expression was induced using autoinduction media. Recombinant monoclonal antibodies secreted into culture supernatant after overnight induction were tested for binding to biotinylated TRBC1 and TRBC2 immobilised on neutravidin coated Nunc Maxisorp™ 96 well plates.

B1: CP_01_F02 (scFv, not shown: small tags and cut ends)
scFv: QVQLVESGGGVVQPGRPLRLSCAASGFTFSSYAMHWVRQAPGKGLEWVAVISYDGSNKYYADSVKGRFTISRDNSKNTLYLQMNSLRAEDTAVYYCARAGYSYADYWGQGTMVTVSSGGGGSGGGGSGGGASDIQMTQSPSSLSASVGDRVTITCRASQGIRNDLGWYQQKPGKAPKRLIYAASSLQSGVPSRFSGSGSGTEFTLTISSLQPEDFATYYCLQHNSYPLTFGGGTKVDIKRTAAA
notes: scFv from pSANG10-3F (His6, tri-FLAG), culture supernatant
B1 displayed a TRBC1 binding of 302000 TRF units.
